Measurements: US20150259426A1 (Novartis, published 2015)

What was measured:
[1] = molecular target: T1, cell-bound human DR5 (Colo205 and other human cell lines) (human, UniProt O14763 56-440); experiment: cell-based or functional assay
[2] = molecular target: T2, DcR3 (TNFRSF6B, Val27-Ala176) (UniProt O95407 27-176); experiment: ELISA, receptor ECD from E. coli lysate on His capture plate;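 note: binding specificity screen across TNF receptor superfamily ectodomains, anti-V5 detection as expression reference, primary antibody incubation 1 h at room temperature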
T2 construct: range 27-176; ECD cloned into pBadThioTopo; E. coli lysate on His capture plates
T2 sequence (looked up): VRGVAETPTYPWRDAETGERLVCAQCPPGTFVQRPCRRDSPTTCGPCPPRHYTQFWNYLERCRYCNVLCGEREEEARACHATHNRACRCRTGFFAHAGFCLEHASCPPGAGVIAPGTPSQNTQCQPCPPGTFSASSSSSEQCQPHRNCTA

[3] = molecular target: T3, OX40 extracellular domain (TNFRSF4, Gly33-Gly212) (UniProt P43489 33-212); experiment: as above
T3 construct: ECD cloned into pBadThioTopo; E. coli lysate on His capture plates
T3 sequence (looked up): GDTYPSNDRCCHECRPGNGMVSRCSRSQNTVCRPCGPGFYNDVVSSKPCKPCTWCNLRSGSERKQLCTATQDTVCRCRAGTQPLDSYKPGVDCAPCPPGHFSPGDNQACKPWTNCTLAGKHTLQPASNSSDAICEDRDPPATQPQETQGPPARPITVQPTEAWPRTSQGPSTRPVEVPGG

[4] = molecular target: T4, CD40 extracellular domain (TNFRSF5, Val18-Leu192) (UniProt P25942 18-192); experiment: as above
T4 construct: range 18-192; ECD cloned into pBadThioTopo; E. coli lysate on His capture plates

[5] = molecular target: T5, OPG (TNFRSF11B, Lys17-Ile197) (UniProt O00300 17-197); experiment: as above
T5 construct: range 17-197; ECD cloned into pBadThioTopo; E. coli lysate on His capture plates
T5 sequence (looked up): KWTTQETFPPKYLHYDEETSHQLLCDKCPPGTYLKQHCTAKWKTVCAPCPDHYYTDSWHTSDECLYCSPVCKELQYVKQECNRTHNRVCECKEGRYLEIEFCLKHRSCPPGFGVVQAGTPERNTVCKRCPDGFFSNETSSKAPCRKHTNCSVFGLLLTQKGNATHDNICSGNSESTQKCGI

[6] = molecular target: T6, CD27 extracellular domain (TNFRSF7, Thr21-Ser187) (UniProt P26842 21-187); experiment: as above
T6 construct: range 21-187; ECD cloned into pBadThioTopo; E. coli lysate on His capture plates

[7] = molecular target: T7, TNFR3 extracellular domain (TNFRSF3, Pro30-Thr224) (UniProt P36941 30-224); experiment: as above
T7 construct: range 30-224; ECD cloned into pBadThioTopo; E. coli lysate on His capture plates

[8] = molecular target: T8, BAFFR extracellular domain (TNFRSF13C, Met1-Gly64) (UniProt Q96RJ3 1-64); experiment: as above
T8 construct: range 1-64; ECD cloned into pBadThioTopo; E. coli lysate on His capture plates

[9] = molecular target: T9, DcR2 extracellular domain (TNFRSF10D, Thr57-Thr198) (UniProt Q9UBN6 57-198); experiment: as above
T9 construct: range 57-198; ECD cloned into pBadThioTopo; E. coli lysate on His capture plates
T9 sequence (looked up): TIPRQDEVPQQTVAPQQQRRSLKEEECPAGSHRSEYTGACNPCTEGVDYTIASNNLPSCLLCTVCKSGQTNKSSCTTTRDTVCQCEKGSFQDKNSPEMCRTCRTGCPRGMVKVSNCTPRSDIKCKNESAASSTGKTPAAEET

[10] = molecular target: T10, hGITR (human, UniProt Q9Y5U5); experiment: as above
T10 construct: extracellular domain, E. coli lysate captured on a His capture plate; Target named only on the sheet; the construct is not described in the text
T10 sequence (extracellular domain, looked up): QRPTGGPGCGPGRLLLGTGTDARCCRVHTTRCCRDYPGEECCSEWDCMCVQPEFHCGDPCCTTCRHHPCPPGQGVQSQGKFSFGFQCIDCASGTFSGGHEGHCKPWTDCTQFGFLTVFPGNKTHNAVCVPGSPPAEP

[11] = molecular target: T11, FAS extracellular domain (TNFRSF6, Ser20-Gly175) (UniProt P25445 20-175); experiment: as above
T11 construct: ECD cloned into pBadThioTopo; E. coli lysate on His capture plates
T11 sequence (looked up): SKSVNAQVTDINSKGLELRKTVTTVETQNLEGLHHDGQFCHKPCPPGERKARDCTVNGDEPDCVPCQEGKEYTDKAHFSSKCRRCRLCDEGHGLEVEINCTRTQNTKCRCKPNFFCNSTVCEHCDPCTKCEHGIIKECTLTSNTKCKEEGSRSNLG

[12] = molecular target: T12, TNFR1 extracellular domain (TNFRSF1A, Leu34-Thr211) (UniProt P19438 34-211); experiment: as above
T12 construct: range 34-211; ECD cloned into pBadThioTopo; E. coli lysate on His capture plates
T12 sequence (looked up): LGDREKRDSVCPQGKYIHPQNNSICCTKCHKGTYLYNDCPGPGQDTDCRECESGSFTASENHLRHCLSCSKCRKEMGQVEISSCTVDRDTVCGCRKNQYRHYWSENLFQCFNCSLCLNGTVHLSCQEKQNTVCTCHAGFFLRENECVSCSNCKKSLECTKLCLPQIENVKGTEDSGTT

[13] = molecular target: T13, CD137 extracellular domain (TNFRSF9, Glu19-Ile188) (UniProt Q07011 19-188); experiment: as above
T13 construct: range 19-188; ECD cloned into pBadThioTopo; E. coli lysate on His capture plates

[14] = molecular target: cynomolgus DR5-Fc fusion protein (cyno DR5 amino acids 56 to 213 fused with human IgG1 Fc) (cynomolgus; human); experiment: SPR (Biacore), CM5 chip coated with cynomolgus DR5-Fc, 1 to 100 nM NB construct
[15] = molecular target: T1, cell-bound human DR5 (Colo205 and other …); experiment: cell-based or functional assay; remark: listed apart in the source

T7 sequence (P36941 30-224 limits assumed): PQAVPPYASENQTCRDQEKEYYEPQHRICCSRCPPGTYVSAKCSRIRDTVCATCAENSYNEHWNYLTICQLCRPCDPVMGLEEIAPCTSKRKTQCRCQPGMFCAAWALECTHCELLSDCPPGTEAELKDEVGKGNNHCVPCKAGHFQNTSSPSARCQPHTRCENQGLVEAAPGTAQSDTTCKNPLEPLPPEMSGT
T6 sequence (P26842 21-187 limits assumed): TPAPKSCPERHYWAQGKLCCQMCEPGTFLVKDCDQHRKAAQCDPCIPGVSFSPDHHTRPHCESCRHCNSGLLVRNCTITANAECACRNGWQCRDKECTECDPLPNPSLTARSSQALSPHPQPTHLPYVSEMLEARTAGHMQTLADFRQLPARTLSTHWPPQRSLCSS
T8 sequence (Q96RJ3 1-64 limits assumed): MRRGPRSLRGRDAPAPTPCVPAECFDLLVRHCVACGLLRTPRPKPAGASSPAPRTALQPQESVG
T4 sequence (P25942 18-192 limits assumed): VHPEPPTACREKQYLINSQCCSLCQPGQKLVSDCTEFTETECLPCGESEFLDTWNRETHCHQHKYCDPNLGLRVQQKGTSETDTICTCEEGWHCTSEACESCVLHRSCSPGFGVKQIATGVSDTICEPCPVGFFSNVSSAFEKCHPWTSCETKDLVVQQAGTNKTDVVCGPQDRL
T13 sequence (Q07011 19-188 limits assumed): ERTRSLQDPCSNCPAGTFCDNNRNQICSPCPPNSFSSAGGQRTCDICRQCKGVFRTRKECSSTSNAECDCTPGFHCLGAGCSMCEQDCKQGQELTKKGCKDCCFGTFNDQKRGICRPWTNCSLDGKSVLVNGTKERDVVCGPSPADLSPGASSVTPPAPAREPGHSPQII

Row | Binder | IC50, cell survival, Colo205 [1] | binding result [2] | binding result [3] | binding result [4] | binding result [5] | binding result [6] | binding result [7] | binding result [8] | binding result [9] | binding result [10] | binding result [11] | binding result [12] | binding result [13] | Kd [14] | IC50, cell survival, A549 [15] | IC50, cell survival, ARPE-19 [15] | IC50, cell survival, H226 [15] | IC50, cell survival, H2052 [15] | IC50, cell survival, H2122 [15] | IC50, cell survival, Huvec [15] | also measured
1 | 4E6 tri (trivalent anti-DR5 NB construct) (VHH, three VHH units in one chain joined by GlySer linkers; not shown: CMYC-HIS6 tag) EVQLVESGGGSVQAGDSLRLSCAASGRTFGSIRVGWFRQTPGKEREFVAAINRNDGTTYYADSVKGRFTISRDNAKNTVYMQMASLKPEDTAVYYCAAGLQYNRSADRVPVGAVYWGQGTQVTVSSGGGGSGGGGSGGGGSGGGGSGGGGSGGGGSGGGGSEVQLVESGGGSVQAGDSLRLSCAASGRTFGSIRVGWFRQTPGKEREFVAAINRNDGTTYYADSVKGRFTISRDNAKNTVYMQMASLKPEDTAVYYCAAGLQYNRSADRVPVGAVYWGQGTQVTVSSGGGGSGGGGSGGGGSGGGGSGGGGSGGGGSGGGGSEVQLVESGGGSVQAGDSLRLSCAASGRTFGSIRVGWFRQTPGKEREFVAAINRNDGTTYYADSVKGRFTISRDNAKNTVYMQMASLKPEDTAVYYCAAGLQYNRSADRVPVGAVYWGQGTQVTVSS | 0.0379 nM | no binding (tested: not stated) | no binding (tested: not stated) | no binding (tested: not stated) | no binding (tested: not stated) | no binding (tested: not stated) | no binding (tested: not stated) | no binding (tested: not stated) | no binding (tested: not stated) | no binding (tested: not stated) | no binding (tested: not stated) | no binding (tested: not stated) | no binding (tested: not stated) | < 0.09 nM | ≥ 20 nM | ≥ 20 nM | 0.02 nM | 0.006 nM | 0.002 nM | ≥ 20 nM | IC50, cell survival, IMR-90 [15]: ≥ 20 nM; IC50, cell survival, Jurkat [15]: ≥ 20 nM; IC50, cell survival, M30 [15]: ≥ 20 nM; IC50, cell survival, MiaPaCa-2 [15]: 0.023 nM; IC50, cell survival, Molt4 [15]: ≥ 20 nM; IC50, cell survival, Panc-1 [15]: ≥ 20 nM
2 | 10F1 tri (trivalent anti-DR5 NB construct) (VHH, not shown: small tags and cut ends) EVQLVESGGGLVQPGGSLRLSCAASGFTFSRYWMYWVRQAPGKGLEWVSAINSGGGDTYYRDSVRGRFTISRDNFKNTLYLQMNSLKSEDTAVYYCAKAEGPPTFSLIRTMTVDPGAQGTQVTVSSGGGGSGGGGSGGGGSGGGGSGGGGSGGGGSGGGGSEVQLVESGGGLVQPGGSLRLSCAASGFTFSRYWMYWVRQAPGKGLEWVSAINSGGGDTYYRDSVRGRFTISRDNFKNTLYLQMNSLKSEDTAVYYCAKAEGPPTFSLIRTMTVDPGAQGTQVTVSSGGGGSGGGGSGGGGSGGGGSGGGGSGGGGSGGGGSEVQLVESGGGLVQPGGSLRLSCAASGFTFSRYWMYWVRQAPGKGLEWVSAINSGGGDTYYRDSVRGRFTISRDNFKNTLYLQMNSLKSEDTAVYYCAKAEGPPTFSLIRTMTVDPGAQGTQVTVSS | 0.0407 nM | no binding (tested: not stated) | no binding (tested: not stated) | no binding (tested: not stated) | no binding (tested: not stated) | no binding (tested: not stated) | no binding (tested: not stated) | no binding (tested: not stated) | no binding (tested: not stated) | no binding (tested: not stated) | no binding (tested: not stated) | no binding (tested: not stated) | no binding (tested: not stated) | < 0.6 nM | ≥ 20 nM | ≥ 20 nM | 0.02 nM | 0.013 nM | 0.003 nM | ≥ 20 nM | IC50, cell survival, IMR-90 [15]: ≥ 20 nM; IC50, cell survival, Jurkat [15]: ≥ 20 nM; IC50, cell survival, M30 [15]: ≥ 20 nM; IC50, cell survival, MiaPaCa-2 [15]: ≥ 20 nM; IC50, cell survival, Molt4 [15]: ≥ 20 nM; IC50, cell survival, Panc-1 [15]: ≥ 20 nM
